Measurements taken from patent US12576154B2, “Conjugates of PSMA-binding moieties with cytotoxic agents” (PHILOCHEM AG, priority 2022, dated 2026).

Tested on: HT1080.hPSMA tumor
Assay: MMAE release at different time points in HT1080.hPSMA tumor model (Conjugate 7 vs Conjugate 1)
Type: in vivo, mice
Protocol: HT1080.hPSMA tumor cells were grown to 90% confluence and detached with Trypsin-EDTA 0.05%. Cells were resuspended in Hank's Balanced Salt Solution (HBSS) at a 5×10^7 cells/mL density. 100 μL of HT1080.hPSMA cells (5×10^6 cells) were injected subcutaneously in the right flank of female athymic Balb/c AnNRj-Foxn1 mice (6 to 8 weeks of age). Tumors were grown until ˜250 mm^3 volume (average).
0.1 mL of a 50 μM solution (2% DMSO, PBS, 250 nmol/kg) of Conjugate 7 was injected intravenously into the tail vein of the mice. The animals were sacrificed after 6 h, 24 h, 48 h, or 72 h (n=3/group), and blood and the following organs were extracted: HT1080.hPSMA tumor, heart, lungs, liver, kidney, spleen, stomach. The blood fraction was centrifuged, and the plasma (supernatant) was extracted. The organs were stored at −80° C. before being used for further analysis.
Frozen plasma (50 μL) and mouse tissues (˜50 mg) were thawed, and 500 μL of PBS was added. Samples were kept on ice, and 50 μL solution of internal standard (d8-MMAE, 50 nM) was added. Samples were then homogenized at 4° C. with a tissue lyser for 2 minutes at 30 Hz for 4 cycles. After homogenization, samples were centrifuged (21'000 g, 10 min). Subsequently, 100 μL of supernatants were collected and added to 900 μL of acetonitrile (ACN) to induce protein precipitation. After centrifugation (21'000 g, 10 min), 800 μL of supernatants were collected and dried at room temperature with a vacuum centrifuge. Pellets were then resuspended in 20 μL of an aqueous solution containing 3% ACN and 0.1% of HCOOH, and 5 μL were injected into the UHPLC-MS system. […] Peak areas of analytes and internal standards were integrated, and corresponding ratios were calculated. The ratios were then transformed into pmol/g of wet tissue using single-concentration external calibration points and corrected by the total weight of the sample analysed. The percentage of injected dose per gram (% ID/g) was finally calculated by normalizing the value based on the total dose injected into the mouse. […]

CC[C@H](C)[C@@H]([C@@H](CC(=O)N1CCC[C@H]1[C@H](OC)[C@@H](C)C(=O)N[C@H](C)[C@@H](O)c1ccccc1)OC)N(C)C(=O)[C@@H](NC(=O)[C@H](C(C)C)N(C)C(=O)OCc1ccc(NC(=O)[C@@H]2CCCN2C(=O)CNC(=O)CCCCCN2C(=O)CC(SC[C@H](N)C(=O)NCCCCCC(=O)NC[C@H]3CC[C@H](C(=O)N[C@@H](Cc4ccc5ccccc5c4)C(=O)NCCCC[C@H](NC(=O)N[C@@H](CCC(=O)O)C(=O)O)C(=O)O)CC3)C2=O)cc1)C(C)C (stereo partly drawn) [Conjugate 1]
MMAE release at 6 h (6 h after i.v. 250 nmol/kg, n=3): 200 pmol/g
MMAE release at highest accumulation point (average) (24 h after i.v. 250 nmol/kg, n=3): approx. 300 pmol/g
Time of highest accumulation point of released MMAE (i.v. 250 nmol/kg, time points 6, 24, 48, 72 h): 24 h
